Laboratory results as given in patent publication US11248243B2, “Process for the biological production of methacrylic acid and derivatives thereof” (MITSUBISHI CHEMICAL UK LIMITED, priority 2015, dated 2022).

Tests used:
[1] = substrate: C=C(C)C(=O)SCCNC(=O)CCNC(=O)[C@H](O)C(C)(C)COP(=O)(O)OP(=O)(O)OC[C@H]1O[C@@H](n2cnc3c(N)ncnc32)[C@H](O)[C@@H]1OP(=O)(O)O; experiment: Kinetic characterisation of purified carboxy-terminal hexahistidine tagged 4HBT (thioester hydrolysis, DTNB); format: biochemical; details: other: substrate of purified CtHis-4HBT (0.075 mg/ml for methacrylyl-CoA, 1 mg/ml for isobutyryl-CoA), DTNB 0.5 mM, Lineweaver-Burke plot; 18.0 °C
Description: (§1) Pure carboxy-terminal His-tagged 4HBT enzyme was then prepared by first growing cultures of E. coli BL21 (DE3) pLysS pET20b(+)::CtHis-4HBT and inducing expression in the exact same manner as was performed for E. coli BL21 (DE3) pLysS pET20b(+)::4HBT. […] Cells were harvested by splitting the cell culture into three centrifuge tubes and centrifuging at 5000 g for 20 min at 4° C. Cell pellets were not washed though, and were instead directly stored at −80° C. A cell free extract of carboxy-terminal hexahistidine tagged 4HBT was prepared by re-suspending one of the E. coli BL21 (DE3) pLysS pET20b(+)::CtHis-4HBT cell pellets in binding buffer (6 ml) for a Nickel-sepharose FPLC column. Binding buffer consisted of NaH2PO4 (10 mM), Na2HPO4 (10 mM), NaCl (500 mM), imidazole (30 mM) and was adjusted to pH 7.4 with HCl. Benzonase® nuclease (0.6 μl) was added to the re-suspended cells before they were lysed in the Constant Systems One Shot cell disrupter. The cell lysate was then clarified by centrifugation at 18,000 g for 15 min at 4° C., followed by centrifugation of the supernatant at 57,750 g for 60 min at 4° C. This supernatant was then loaded onto a GE Healthcare HisTrap™ FF Crude column (1 ml) that was equilibrated with binding buffer. […] Protein elution was monitored at 280 nm and fractions were checked for the presence and purity of carboxy-terminal His-tagged 4HBT by SDS-PAGE. […] The latter dilution in potassium phosphate assay buffer and re-concentration was performed once more and the concentration of CtHIS-4HBT protein was determined by UV280 absorbance in a NanoDrop ND1000 spectrophotometer, using a molar extinction coefficient of 20970M^−1·cm^−1 and a molecular weight of 17516.5 mg·mmol^−1 for the carboxy-terminal His-tagged 4HBT enzyme. The values for the molar extinction coefficient and molecular weight were determined using the Expasy ProtParam tool, using the amino acid translation of the gene sequence encoding the carboxy-terminal his tagged 4HBT enzyme (SEQ. ID 5) in the pET20b(+)::CtHis-4HBT plasmid. […]
(§2) Methacrylyl-CoA hydrolysis reactions (200 μl) were performed in Nunc 96 well plates using purified CtHis-4HBT protein (0.075 mg·ml^−1) and DTNB (0.5 mM) to monitor the reaction. Initial rates were determined for methacrylyl-CoA starting concentrations of 0.375 mM, 0.3 mM, 0.225 mM, 0.15 mM and 0.075 mM. […]
(§3) Isobutyryl-CoA hydrolysis reactions (200 μl) were also performed in Nunc 96 well plates, using purified CtHIS-4HBT protein (1 mg·ml^−1) and DTNB (0.5 mM) to monitor the reaction. Initial rates were determined for isobutyryl-CoA starting concentrations of 0.5 mM, 0.4 mM, 0.3 mM, 0.2 mM and 0.1 mM. […]

[2] = substrate: CC(C)C(=O)SCCNC(=O)CCNC(=O)[C@H](O)C(C)(C)COP(=O)(O)OP(=O)(O)OC[C@H]1O[C@@H](n2cnc3c(N)ncnc32)[C@H](O)[C@@H]1OP(=O)(O)O; experiment: as above; format: biochemical; details: other: substrate of purified CtHis-4HBT (0.075 mg/ml for methacrylyl-CoA, 1 mg/ml for isobutyryl-CoA), DTNB 0.5 mM, Lineweaver-Burke plot; 18.0 °C
Description: as §1, §2, §3

B1: 4-hydroxybenzoyl-CoA thioesterase (4HBT) (Arthrobacter sp.) (protein)
chain: MHRTSNGSHATGGNLPDVASHYPVAYEQTLDGTVGFVIDEMTPERATASVEVTDTLRQRWGLVHGGAYCALAEMLATEATVAVVHEKGMMAVGQSNHTSFFRPVKEGHVRAEAVRIHAGSTTWFWDVSLRDDAGRLCAVSSMSIAVRPRRDGLEHHHHHH
notes: made in house; host or cells: E. coli BL21 (DE3) pLysS pET20b(+)::CtHis-4HBT
**Q.** What does the source list for B1?
**A.** Km [1]: 1600 µM; Vmax [1]: 470 nmols·mg^−1·min^−1; Km [2]: 3000 µM; Vmax [2]: 16.7 nmols·mg^−1·min^−1
